{"source": "patent US20160091498", "proteins": {"B1": {"name": "purified ACK1 (protein)", "chain": "GEGPLQSLTCLIGEKDLRLLEKLGDGSFGVVRRGEWDAPSGKTVSVAVKCLKPDVLSQPEAMDDFIREVNAMHSLDHRNLIRLYGVVLTPPMKMVTELAPLGSLLDRLRKHQGHFLLGTLSRYAVQVAEGMGYLESKRFIHRDLAARNLLLATRDLVKIGDFGLMRALPQNDDHYVMQEHRKVPFAWCAPESLKTRTFSHASDTWMFGVTLWEMFTYGQEPWIGLNGSQILHKIDKEGERLPRPEDCPQDIYNVMVQCWAHKPEDRPTFVALRDFLLEAQPTDMRALQDFEEPDKLHIQMNDVITVIEGRAENYWWRGQNTRTLCVGPFPRNVVTSVAGLSAQDISQPLQNSFIHTGHGDSDPRHCW"}}, "target": "purified histone H4 (New England Biolabs), P62805"}
{"protein": "B1", "values": [{"measurement": "in vitro kinase assay with all the four core histones, immunoblotting with pY88-H4 antibodies", "result": "Presence of band exclusively when ACK1 was incubated with H4"}, {"measurement": "in vitro kinase assay, immunoblotting with pY88-H4 and pTyr antibodies", "result": "indeed H4 is directly Tyr-phosphorylated by ACK1"}]}
